Source: patent US20200332003A1
Positions count from the first letter of the chain named. “And” between values parts separate entries of the source, which are not always exact repeats. Identical values can stand only once.

B1: anti-TRBV9-1 monoclonal antibody (antibody, human IgG1, kappa, V domains shown)
VH: QIQLVQSGPELREPGESVKLSCKASGYTFTDYLVHWVKQAPGKGLKWMGWINTYTGTPTYADDFEGRFVFSLEASASTANLQISNLKNEDTATYFCARSWRRGLRGLGFDYWGQGVFVTVSS
VL: DVQMTQSPYNLAASPGESVSINCKASKSINKYLAWYQQKPGKPNKLLIYDGSTLQSGIPSRFSGSGSGTDFTLTIRGLEPEDFGLYYCQQHNEYPPTFGAGTKLELKR
B2: anti-TRBV9-3 monoclonal antibody (antibody, human IgG1, kappa, V domains shown)
VH: B1 VH with L104I
VL: B1 VL
B3: anti-TRBV9-4 monoclonal antibody (antibody, human IgG1, kappa, V domains shown)
VH: B1 VH with L104I, L107I
VL: B1 VL
B4: anti-TRBV9-2 monoclonal antibody (antibody, human IgG1, kappa, V domains shown)
VH: B1 VH with L107I
VL: B1 VL

Experiments:
TRBV9 + TRAV26 antigen = experiment: BLI (OctetRed 96), antigen immobilized on AR2G sensor, antibody 126-2 nM, 1:1 model
TRBV9 + TRAV38 antigen = experiment: as above
[1] = target: T cell receptor with a beta-chain of the TRBV9 family on human peripheral blood T lymphocytes (human); experiment: flow cytometry of human blood mononuclear cells, FITC-labelled antibody at 27 ng per test (lower plot), co-stained with anti-CD3-eFluor 405 [lower plot]
[2] = target: T cell receptor with a beta-chain of the TRBV9 family on human peripheral blood T lymphocytes (human); experiment: flow cytometry of human blood mononuclear cells, FITC-labelled antibody at 270 ng per test (upper plot), co-stained with anti-CD3-eFluor 405 [upper plot]
[3] = target: T cell receptor with a beta-chain of the TRBV9 family on human peripheral blood T lymphocytes (human); experiment: cell sorting with the FITC-labelled antibody, then sequencing of TCR beta-chains
[4] = target: T cell receptor with a beta-chain of the TRBV9 family on human peripheral blood T lymphocytes (human); experiment: flow cytometry, FITC-labelled antibody at 5 ng/ul and 0.5 ng/ul on human mononuclear blood cells

Binder	Kd (TRBV9 + TRAV26 antigen)	koff (TRBV9 + TRAV26 antigen)	kon (TRBV9 + TRAV26 antigen)	Kd (TRBV9 + TRAV38 antigen)	koff (TRBV9 + TRAV38 antigen)	kon (TRBV9 + TRAV38 antigen)	% of cells in the CD3+TRBV9+ gate (small rectangle) [1] [%]	% of cells in the CD3+TRBV9+ gate (small rectangle) [2] [%]	percent of TCR beta-chain sequences of the sorted CD3+TRBV9+ fraction that belong to the TRBV9 family [3] [%]	percent of the CD3-positive fraction stained [4] [%]
B1	0.22 nM and 0.204 nM and 0.278 nM	0.000114 s⁻¹ and 0.000113 s⁻¹ and 0.000183 s⁻¹	559000 M⁻¹ s⁻¹ and 515000 M⁻¹ s⁻¹ and 658000 M⁻¹ s⁻¹	0.365 nM and 0.529 nM and 0.414 nM	0.000205 s⁻¹ and 0.000196 s⁻¹ and 0.000183 s⁻¹	562000 M⁻¹ s⁻¹ and 371000 M⁻¹ s⁻¹ and 441000 M⁻¹ s⁻¹	3	1.6	–	–
B2	0.319 nM and 0.582 nM	9.16e-05 s⁻¹ and 9.8e-05 s⁻¹	287000 M⁻¹ s⁻¹ and 168000 M⁻¹ s⁻¹	0.311 nM and 0.4 nM	9.61e-05 s⁻¹ and 9.16e-05 s⁻¹	309000 M⁻¹ s⁻¹ and 229000 M⁻¹ s⁻¹	2.6	3	–	–
B3	< 0.001 nM	< 1e-07 s⁻¹	865000 M⁻¹ s⁻¹ and 579000 M⁻¹ s⁻¹	< 0.001 nM	< 1e-07 s⁻¹	713000 M⁻¹ s⁻¹ and 476000 M⁻¹ s⁻¹	2.4	2.9	–	–
B4	–	–	447000 M⁻¹ s⁻¹ and 381000 M⁻¹ s⁻¹	< 0.001 nM	< 1e-07 s⁻¹	397000 M⁻¹ s⁻¹ and 289000 M⁻¹ s⁻¹	–	–	90	2.9
